Assay: yeast display, Sf9 membrane polyspecificity reagent, FACS + sequencing; frameworks hold sequencing errors
How it was run: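 Nanobodies from a synthetic yeast display library (Saccharomyces cerevisiae BJ5465), induced 36–48 hours with galactose, were stained 1 hour at 4 °C with 10% biotinylated, detergent-solubilized Sf9 membrane reagent, enriched on streptavidin microbeads, then FACS-sorted. Anti-HA (expression) and streptavidin (reagent binding) fluorescence set low and high (top ~1%) gates. Polyreactivity labels come from the gate of origin. Genes were colony-PCR amplified, MiSeq 2 × 250 sequenced and filtered by CDR length.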
With “QVQLVESGGGLVQAGGSLRLSCAASGFIFAFNAMGWYRQAPGKEREFVASITGSSDSTYYADSVKGRFTISRDNAKNTVYLQMNSLKPEDTAVYYCAADPASSYGKYSYYYWGQGTQVTVSS” the “polyreactivity (PSR sort gate)” value was “high polyreactivity”.
For “QVQLVESGGGLVQAGGSLRLSCAASGFIFAGYAMGWYRQAPGKERELVAAINRNGRSTYYADSVKGRFTISRDNAKNTVYLQMNSLKPEDTAVYYCNARSFARIGAGKGDYWGQGTQVTVSS”, the “polyreactivity (PSR sort gate)” value was “high polyreactivity”.
With “QVQLVESGGGLVQAGGSLRLSCAASGFIFAKYAMGWYRQAPGKERELVAAITSGGSTNYADSVKGRFTISRDNAKNTVYLQMNSLKPEYTAVYYCNRGFDWWYRYRHYDYWGQGTQVTVSS” the “polyreactivity (PSR sort gate)” value was “low polyreactivity”.
With “QVQLVESGGGLVQAGGSLRLSCAASGFIFALYTMGWYRQAPGKERELVARIRGGGRTNYADSVKGRFTISRDNAKNTVYLQMNSLKPEDTAVYYCNARKTVGMDYWGQGTQVTVSS” the “polyreactivity (PSR sort gate)” value was “low polyreactivity”.
With “QVQLVESGGGLVQAGGSLRLSCAASGFIFAQNAMGWYRQAPGKEREFVAAISSRGSRTYYADSVKGRFTISRDNAKNTVYLQMNSLKPEDTAVYYCAASRRTRSMNYWGQGTQVTVSS” the “polyreactivity (PSR sort gate)” value was “high polyreactivity”.
In the case of “QVQLVESGGGLVQAGGSLRLSCAASGFIFARNAMGWYRQAPGKERELVAVISTRGRTYYADSVKGRFTISRDNAKNTVYLQMNSLKPEDTAVYYCNADKVIGYDYWGQGTQVTVSS”, the “polyreactivity (PSR sort gate)” value was “high polyreactivity”.
In the case of “QVQLVESGGGLVQAGGSLRLSCAASGFIFARYAMGWYRQAPGKERELVAAISSSGSSSYYADSVKGRFTISRDNAKNTVYLQMNSLKPEDTAVYYCAAKDSKYRNSPLYNYWGQGTQVTVSS”, the “polyreactivity (PSR sort gate)” value was “high polyreactivity”.
In the case of “QVQLVESGGGLVQAGGSLRLSCAASGFIFARYAMGWYRQAPGKERELVASITRRGGSTYYADSVKGRFTISRDYEKITVYLQMNSLKPEDTAVYYCARPNLLSGDYWGQGTQVTVSS”, the “polyreactivity (PSR sort gate)” value was “high polyreactivity”.
With “QVQLVESGGGLVQAGGSLRLSCAASGFIFARYAMGWYRQAPGKERELVATISYTGGRRYYADSVKGRFTISRDHANNTVYLQINSLKPEDTAVYYVNAVYSYDRQRHEYWGQGTQVTVSS” the “polyreactivity (PSR sort gate)” value was “high polyreactivity”.
For “QVQLVESGGGLVQAGGSLRLSCAASGFIFASYAMGWYRQAPGKERELVAAISSSGGRTYYADSVKGRFTISRDNAKNTVYLQMNSLKPEDTAVYYCAAPRIYIPAEYYSWGQGTQVTVSS”, the “polyreactivity (PSR sort gate)” value was “high polyreactivity”.
For “QVQLVESGGGLVQAGGSLRLSCAASGFIFASYAMGWYRQAPGKERELVAAISYRGGTTYYADSVKGRFTISRDNAKNTVYLQMNSLKPEDTALYYCAADSPENRYNYWGQGTQVTVSS”, the “polyreactivity (PSR sort gate)” value was “high polyreactivity”.
In the case of “QVQLVESGGGLVQAGGSLRLSCAASGFIFASYAMGWYRQAPGKERELVAAITQSRGITYYADSVKGRFTISRDNAKNTVYLQMNSLKPEDTAGYYCNTPLLKRTSRGRERNYWGQGTQVTVSS”, the “polyreactivity (PSR sort gate)” value was “low polyreactivity”.
With “QVQLVESGGGLVQAGGSLRLSCAASGFIFASYAMGWYRQAPWKERELVAAISYRGGTTYYADSVKGRFTISRDNAKNTVYLQMNSLKPEDTAVYYCAADSPENRYNDWGQGTQVTVSS” the “polyreactivity (PSR sort gate)” value was “high polyreactivity”.
In the case of “QVQLVESGGGLVQAGGSLRLSCAASGFIFATNAMGWYRQAPGKEREFVAAITSGGSTYYADSVKGRFTISRDNAKNTVYLQMNSLKPEDTAVYYCNARTYSRVTRQTYRYRPYDYWGQGTQVTVSS”, the “polyreactivity (PSR sort gate)” value was “high polyreactivity”.
In the case of “QVQLVESGGGLVQAGGSLRLSCAASGFIFAYNAMGWYRQAPGKEREFVAAINSGGDSTYYADSVKGRFTISRDYANNTVYLQMNSLKPEDTAVYSCAAVIGNKRYYYWGQGTQVTVSS”, the “polyreactivity (PSR sort gate)” value was “low polyreactivity”.
In the case of “QVQLVESGGGLVQAGGSLRLSCAASGFIFAYNAMGWYRQAPGKERELVAAISWSGGSTYYADSVKGRFTISRDNAKNTVYLQMNSLKPEDTAVYYCNKYIRYPFKRYGYWGQGTQVTVSS”, the “polyreactivity (PSR sort gate)” value was “high polyreactivity”.
For “QVQLVESGGGLVQAGGSLRLSCAASGFIFAYNAMGWYRQAPGKERELVAAISWSGGSTYYADYVKGRFTISRDNAKNTVYLQMNSLKPEDTAVYYCNAVSYYGARYDYWGQGTQVTVSS”, the “polyreactivity (PSR sort gate)” value was “high polyreactivity”.
In the case of “QVQLVESGGGLVQAGGSLRLSCAASGFIFAYYAMGWYRQAPGKERELVAAISSRGGTYYADSVKGPFTISRDNAKNTVYLQMNSLKPEDTAVYYCAAASYTWVSLGYEYWGQGTQVTVSS”, the “polyreactivity (PSR sort gate)” value was “high polyreactivity”.
For “QVQLVESGGGLVQAGGSLRLSCAASGFIFAYYAMGWYRQAPGKERELVAAITNSGGSTYYADSVKGRFTISRDNAKNTVYLQMNSLKPEDTAVYYCNALHRIRYTPSSRYDYWGQGTQVTVSS”, the “polyreactivity (PSR sort gate)” value was “low polyreactivity”.
In the case of “QVQLVESGGGLVQAGGSLRLSCAASGFIFAYYAMGWYRQEPGKERELVAAISSSGSTNYADSVKGRFTISRDNAKNTVYLQMNSLKPEDTAVYYCAADRVGGTPQAYVPSQFDYWGQGTQVTVSS”, the “polyreactivity (PSR sort gate)” value was “low polyreactivity”.
With “QVQLVESGGGLVQAGGSLRLSCAASGFIFDAYAMGWYRQAPGKERELVAAIDSGGSTDYADSVKGRFTISRDNAKNTVYLQMNSLKPEDTAVYYCNAERAYLWWYNFDYWGQGTQVTVSS” the “polyreactivity (PSR sort gate)” value was “low polyreactivity”.
In the case of “QVQLVESGGGLVQAGGSLRLSCAASGFIFDDNAMGWYRQAPGKERELVAAITSGGGSTYYADSVKGRFTISRDNAKNTVYLQMNSLIPEDTAVYYCNAVPSQHDEFDYWGQGTHVTVSS”, the “polyreactivity (PSR sort gate)” value was “low polyreactivity”.
For “QVQLVESGGGLVQAGGSLRLSCAASGFIFDDYAMGWNRQAPGKERELVAAITDSGDGTDYADSVKGRFTISRDNAKNTVYLQMNSLKPEDTAVYYCAAGLWYSYDYWGQGTQVTVSS”, the “polyreactivity (PSR sort gate)” value was “high polyreactivity”.
In the case of “QVQLVESGGGLVQAGGSLRLSCAASGFIFDFYAMGWYRQAPGKERELVATINSSGTTNYADSVKGRFTISRDNAKNTVYLQMNSLKPEDTAVYYCATVEYLGHYTYDYWGQGTQVTVSS”, the “polyreactivity (PSR sort gate)” value was “low polyreactivity”.
In the case of “QVQLVESGGGLVQAGGSLRLSCAASGFIFDKNAMGWYRQAPGKERELVAAISSGGGSTDYADAVKGRFTISRDNAKNPDYLHMNSLKPEDTAVYYCARYWDQLQQYVISFGRYGMDYWGQGTQVTVSS”, the “polyreactivity (PSR sort gate)” value was “high polyreactivity”.
With “QVQLVESGGGLVQAGGSLRLSCAASGFIFDNNAMGWYRQAPGKERELVADISESGGSTYYADSVKGRFTISRDNAKNTVYLQMNSLKPEDTAVYYCNADIESWYCEFDYWGQGTQVTVSS” the “polyreactivity (PSR sort gate)” value was “low polyreactivity”.
With “QVQLVESGGGLVQAGGSLRLSCAASGFIFDRYAMGWYRQAPGKERELVAAISSGGSTYYADSVKGRFTISRDNAKNTVYLQMNSLKPEDTAVYYCAAESWLNFIYEYDYWGQGTQVTVSS” the “polyreactivity (PSR sort gate)” value was “low polyreactivity”.
For “QVQLVESGGGLVQAGGSLRLSCAASGFIFDRYAMGWYRQAPGKERELVAAISWTGGSTYYADSVKGRFTISRDNAKNTVYLQMNSLKPEDTAVYYCAVEYSLVYWSGVVDLGYWGQGTQVTVSS”, the “polyreactivity (PSR sort gate)” value was “high polyreactivity”.
With “QVQLVESGGGLVQAGGSLRLSCAASGFIFDTYAMGWYRQAHGKERELVAAIRWSGGRTYYGDSVKGRFTISRDNAKNTVYLQMNSMKPEDTAVYYCNVVVRYPYAYDYWGQGTQVTVSS” the “polyreactivity (PSR sort gate)” value was “high polyreactivity”.
With “QVQLVESGGGLVQAGGSLRLSCAASGFIFDWYAMGWYRQAPGKERELVAAINESGGDTYYADSVKGRFTISRDNAKNTVYLQMNSLKPEDTAVYYCAARTYHRYDYWGQGTQVTVSS” the “polyreactivity (PSR sort gate)” value was “high polyreactivity”.
For “QVQLVESGGGLVQAGGSLRLSCAASGFIFDYNAMVWYRQAPGKERELVAAISISGGGTYYADSVKGRFTISRDNAKNTVYLQMNSLKPEDTAVYYCATAGRYDAYDYWGQGTQVTVSS”, the “polyreactivity (PSR sort gate)” value was “low polyreactivity”.
For “QVQLVESGGGLVQAGGSLRLSCAASGFIFDYYAMGWYRQAPGKERELVAAIDDSGGSTYYADSVKGRFTISRDNAKNTVYLQMNSLKPEDTAVYYCNAGVGWHSYYSNYDYWGQGTQVTVSS”, the “polyreactivity (PSR sort gate)” value was “low polyreactivity”.
With “QVQLVESGGGLVQAGGSLRLSCAASGFIFDYYAMGWYRQAPGKERELVAAITRDGGGTYYADSVKGRFTISRDNEKNSVYLQMNSLKPEDTAVYYCAAETYWYYRANYDYWGQGTQVTVSS” the “polyreactivity (PSR sort gate)” value was “high polyreactivity”.
In the case of “QVQLVESGGGLVQAGGSLRLSCAASGFIFDYYAMGWYRQAPGKERELVAAITSRSGSTYYADSVKGRFTISRDNAKNTVYLQMNSLKPEDTAVYYCSRRFKYGSTAWRFYYWGQGTQVTVSS”, the “polyreactivity (PSR sort gate)” value was “high polyreactivity”.
For “QVQLVESGGGLVQAGGSLRLSCAASGFIFDYYAMGWYRQAPGKERELVATISSSGGSTYYADSVKGRFTISRDYAKKTVYLQMNSLKPEDTAVYYCATGYTWVADSWEYYYWGQGTQVTVSS”, the “polyreactivity (PSR sort gate)” value was “low polyreactivity”.
With “QVQLVESGGGLVQAGGSLRLSCAASGFIFEDYAMGWYRQAPGKERELVAAIRSNDDSTYYADSVKGRFTISRDNAKNTVYLQMNSLKPEDTAVYYCAAVRYVHFGYDYWGQGTQVTVSS” the “polyreactivity (PSR sort gate)” value was “high polyreactivity”.
With “QVQLVESGGGLVQAGGSLRLSCAASGFIFEGNAMGWYRQAPGKERELVAAISSSSGRTRYADSVKGRFTISRDNAKNTVYLQMNSLKPEDTAVYYCAARRQSTRPGFYYWGQGTQVTVSS” the “polyreactivity (PSR sort gate)” value was “high polyreactivity”.
For “QVQLVESGGGLVQAGGSLRLSCAASGFIFEPYAMGWYRQAPGKERELVAAISSGGSTYADSVKGRFTISRDNAKNTVYLQMNSLKPEDTAVYYCAVRGYWGQGTQVTVSS”, the “polyreactivity (PSR sort gate)” value was “low polyreactivity”.
In the case of “QVQLVESGGGLVQAGGSLRLSCAASGFIFEPYAMGWYRQAPGTERELVAAISATDDSTYYADSVKGRFTISRDNAKNTVYLQMNSLKPEDTAVYYCNATYYIIALPYDYWGQGTQVTVSS”, the “polyreactivity (PSR sort gate)” value was “low polyreactivity”.
With “QVQLVESGGGLVQAGGSLRLSCAASGFIFERYTMGWYRQAPGKERELVAAISDSGGSTYYADSVKGRFTISRDNAKNTVYLQMNSLKPEDTAVYYCAAKFRNYRPSKYYYWGQGTQVTVSS” the “polyreactivity (PSR sort gate)” value was “high polyreactivity”.
With “QVQLVESGGGLVQAGGSLRLSCAASGFIFESNAMGWYIQAPGKERELVATITNGDRTYYADSVNGRFTISRDNAKNTVYLQMNSLKPEDTAVYYCNADFRAREVFLFDSWGQGTQVTVSS” the “polyreactivity (PSR sort gate)” value was “low polyreactivity”.
In the case of “QVQLVESGGGLVQAGGSLRLSCAASGFIFFANAMGWYRQAPGKESELVADITWSGGTTYYADSVKGRFTISRDNAKNTVYLQMNSLKPEDTAVYYCAARGWASTWYYYWGQGTQVTVSS”, the “polyreactivity (PSR sort gate)” value was “high polyreactivity”.
For “QVQLVESGGGLVQAGGSLRLSCAASGFIFFFYAMGWYRQAPGKERELVASISWNGGSTYYADSVKGRFTISRDNAKNTVYLQMNSLKPEYTAVYYCAVYSFRERVKAYRIYDYWGQGTHVTVSS”, the “polyreactivity (PSR sort gate)” value was “low polyreactivity”.
